Measured values from the supplement of paper PMC10724198.
± gives the standard deviation of the averaged measurements.

These sequences were tested on Saccharomyces cerevisiae (assay: protein stability index of tFT-peptide fusion (C-terminal peptide) (PSI (0-1 scale)); higher = more stable (slower turnover)). Details: genetic background: das1 deletion; temperature: 30 C.
Method: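 MPS profiling in S. cerevisiae of the tFT-X12 degron library: putative degron peptides plus stable controls, 12 aa, fused to the C-terminus of a sfGFP-mCherry timer. Cells are FACS-sorted into 8 mCherry/sfGFP bins and deep-sequenced. PSI runs from 0 (unstable) to 1 (stable). Backgrounds are wild type, das1Δ and doa10Δ at 30 °C, and wild type, das1Δ, cdc34-1 and cdc53-1 at 37 °C; 2-3 technical replicates each.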
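Also: PSI is a weighted mean of sequencing reads over stability bins, variants kept only with over 10 reads, mCherry proximal and sfGFP distal, peptide attached via GGGS linker.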

In order of falling protein stability index:
1. YFRKDYRKMAQH  0.669 ± 0.06
2. YLFDQYDWYKSM  0.666 ± 0.041
3. YSALHNPPQPVT  0.6556 ± 0.0065
4. YQFDGLVFLRLS  0.645 ± 0.014
5. WLKLWSYVTHLG  0.632 ± 0.025
6. VRRGAVWCCLCG  0.623 ± 0.012
7. YPSASLLPLFSC  0.622 ± 0.014
8. YGAGDLTKYFIV  0.607 ± 0.0086
9. YWRNYLVLVCKF  0.592 ± 0.023
10. VTGYLSTLTMLC  0.551 ± 0.02
11. YLLTAFLSAFNP  0.543 ± 0.019
12. WFLVLLFFWFLL  0.541 ± 0.0066
13. YLMVSKMSLRIG  0.532 ± 0.021
14. VVFRCSSFFCLV  0.524 ± 0.029
15. YRWERIYIGLRL  0.49 ± 0.039
16. WYAGIVFTRVWM  0.487 ± 0.015
17. VVNFLVFRFFCI  0.481 ± 0.029
18. VVRVSFSFCLSC  0.48 ± 0.029
19. VVLGLFCVRMGT  0.454 ± 0.031
20. WVVVARIFSVFF  0.445 ± 0.0061
21. WFYLLFVLFGLV  0.438 ± 0.033
22. VRLSQVNRLICT  0.437 ± 0.024
23. YPGMFLQLVWWI  0.433 ± 0.03
24. WSLRFRRMMLRC  0.429 ± 0.028
25. VWSVSVTIVGRR  0.423 ± 0.037
26. VVPYPFLTLLNI  0.403 ± 0.041
27. VWLFSWSVVGGT  0.369 ± 0.017
28. VVSVVVLVNSRG  0.36 ± 0.023
29. VVVWLFRIKSNV  0.358 ± 0.059
30. YDLRRIGRIGVG  0.348 ± 0.019
31. VRINLLFVWFSR  0.331 ± 0.044
32. VWGLWRLCVWGV  0.327 ± 0.036
33. WHFPCPPLPCPV  0.325 ± 0.031
34. VVVLLLVVWFCL  0.316 ± 0.027
35. WCLLGVPVRVVV  0.307 ± 0.042
36. WAFVVCGAVFFW  0.299 ± 0.014
37. VVLVGVAVCRLG  0.29 ± 0.025
38. WLGCVLIGWHVL  0.288 ± 0.048
39. WILLVLACFSSG  0.272 ± 0.036
40. YHFRLLVTCCPC  0.264 ± 0.016
41. YTLWFLAWGLVF  0.241 ± 0.033
42. VRYCFFWVRAVV  0.233 ± 0.04
43. YAFLWCVFYLSF  0.222 ± 0.028
44. WVVVKITAHTAT  0.22 ± 0.02
45. VRVLAALVLCVV  0.217 ± 0.019
46. VVFLWRCRLLLG  0.213 ± 0.034
47. VTWNFIVYVCCF  0.209 ± 0.016
48. YCCDYFMFVLVV  0.206 ± 0.044
49. YLCCFSVAFFLG  0.206 ± 0.039
50. WCVCVSMRMIAI  0.201 ± 0.011
51. VYVYTIRVRWSE  0.197 ± 0.013
52. VYFASCVVLLMV  0.194 ± 0.029
53. VYLVVLYLRYFA  0.192 ± 0.038
54. VVIYWFLPIIFA  0.163 ± 0.032
55. WFIFATFLILVT  0.136 ± 0.032
56. YRFVWRWIPICA  0.12 ± 0.038
57. YFIVVSWFLVCW  0.114 ± 0.029
58. YYLHFRFFIYVF  0.108 ± 0.035
59. YFLFRYIVITVF  0.0711 ± 0.025

Same assay, conditions: genetic background: das1 deletion; temperature: 37 C

In order of rising protein stability index:
1. YRFVWRWIPICA  0.116 ± 0.032
2. YFLFRYIVITVF  0.135 ± 0.026
3. WCVCVSMRMIAI  0.175 ± 0.013
4. YYLHFRFFIYVF  0.201 ± 0.0051
5. WFIFATFLILVT  0.2121 ± 0.001
6. VRICVVLRVCWW  0.217 ± 0.0071
7. YFIVVSWFLVCW  0.218 ± 0.0028
8. VVIYWFLPIIFA  0.253 ± 0.018
9. VTWNFIVYVCCF  0.25776 ± 1.6e-05
10. VYVYTIRVRWSE  0.289 ± 0.023
11. YCCDYFMFVLVV  0.3012 ± 0.0022
12. VYFASCVVLLMV  0.3194 ± 0.0019
13. YAFLWCVFYLSF  0.337 ± 0.01
14. VYLVVLYLRYFA  0.359 ± 0.023
15. VRVLAALVLCVV  0.3799 ± 0.00079
16. YHFRLLVTCCPC  0.38 ± 0.01
17. YTLWFLAWGLVF  0.3865 ± 0.0028
18. YLCCFSVAFFLG  0.3961 ± 0.00067
19. YDLRRIGRIGVG  0.402 ± 0.016
20. WVVVKITAHTAT  0.405 ± 0.018
21. WILLVLACFSSG  0.40822 ± 2.1e-05
22. VVFLWRCRLLLG  0.416 ± 0.0042
23. VVVLLLVVWFCL  0.428 ± 0.027
24. VRYCFFWVRAVV  0.4555 ± 0.0013
25. VVRVSFSFCLSC  0.459 ± 0.021
26. WCLLGVPVRVVV  0.462 ± 0.0047
27. WAFVVCGAVFFW  0.466 ± 0.005
28. WLGCVLIGWHVL  0.481 ± 0.01
29. WHFPCPPLPCPV  0.484 ± 0.0032
30. VVLVGVAVCRLG  0.4888 ± 0.0021
31. VRINLLFVWFSR  0.491 ± 0.012
32. VWGLWRLCVWGV  0.5012 ± 0.0017
33. VWLFSWSVVGGT  0.523 ± 0.012
34. VWSVSVTIVGRR  0.528 ± 0.017
35. WSLRFRRMMLRC  0.534 ± 0.0069
36. VVPYPFLTLLNI  0.539 ± 0.014
37. VVSVVVLVNSRG  0.5405 ± 0.0032
38. WFYLLFVLFGLV  0.542 ± 0.0065
39. YLLTAFLSAFNP  0.55 ± 0.0074
40. WVVVARIFSVFF  0.57 ± 0.0013
41. VVVWLFRIKSNV  0.576 ± 0.005
42. YPGMFLQLVWWI  0.5804 ± 0.0042
43. VRLSQVNRLICT  0.585 ± 0.021
44. VNFVLTLYPYLV  0.603 ± 0.02
45. YLMVSKMSLRIG  0.609 ± 0.017
46. VVLGLFCVRMGT  0.6108 ± 0.0044
47. YRWERIYIGLRL  0.615 ± 0.019
48. WFLVLLFFWFLL  0.618 ± 0.028
49. VVFRCSSFFCLV  0.622 ± 0.015
50. VVNFLVFRFFCI  0.649 ± 0.026
51. WYAGIVFTRVWM  0.654 ± 0.03
52. VTGYLSTLTMLC  0.671 ± 0.023
53. WLKLWSYVTHLG  0.717 ± 0.022
54. VQLLTRLKTPHP  0.719 ± 0.015
55. YSALHNPPQPVT  0.7216 ± 0.0049
56. YGAGDLTKYFIV  0.726 ± 0.039
57. VPPLPPPGPPTF  0.733 ± 0.014
58. YFRKDYRKMAQH  0.7429 ± 0.0026
59. VRRGAVWCCLCG  0.748 ± 0.004
60. YPSASLLPLFSC  0.748 ± 0.015
61. VRDQGWILNMLL  0.7546 ± 0.0011
62. YQFDGLVFLRLS  0.774 ± 0.018
63. YWRNYLVLVCKF  0.778 ± 0.023
64. YLFDQYDWYKSM  0.8049 ± 0.0067

Same assay, conditions: genetic background: doa10 deletion; temperature: 30 C

In order of falling protein stability index:
1. VPPLPPPGPPTF  0.683 ± 0.029
2. VQLLTRLKTPHP  0.636 ± 0.021
3. VRLSQVNRLICT  0.394 ± 0.019
4. VRDQGWILNMLL  0.3707 ± 0.0019
5. VRRGAVWCCLCG  0.368 ± 0.017
6. VRINLLFVWFSR  0.359 ± 0.016
7. VNFVLTLYPYLV  0.275 ± 0.016
8. VTGYLSTLTMLC  0.231 ± 0.0097
9. VRYCFFWVRAVV  0.173 ± 0.0088
10. VRVLAALVLCVV  0.156 ± 0.0081
11. VRICVVLRVCWW  0.117 ± 0.034
